# IntAct's records for PubMed 31515488
# B1: Melanoma-associated antigen 4 (Homo sapiens), P43358 (parent)
# chain: MSSEQKSQHCKPEEGVEAQEEALGLVGAQAPTTEEQEAAVSSSSPLVPGTLEEVPAAESAGPPQSPQGASALPTTISFTCWRQPNEGSSSQEEEGPSTSPDAESLFREALSNKVDELAHFLLRKYRAKELVTKAEMLERVIKNYKRCFPVIFGKASESLKMIFGIDVKEVDPASNTYTLVTCLGLSYDGLLGNNQIFPKTGLLIIVLGTIAMEGDSASEEEIWEELGVMGVYDGREHTVYGEPRKLLTQDWVQENYLEYRQVPGSNPARYEFLWGPRALAETSYVKVLEHVVRVNARVRIAYPSLREAALLEEEEGV
# partner: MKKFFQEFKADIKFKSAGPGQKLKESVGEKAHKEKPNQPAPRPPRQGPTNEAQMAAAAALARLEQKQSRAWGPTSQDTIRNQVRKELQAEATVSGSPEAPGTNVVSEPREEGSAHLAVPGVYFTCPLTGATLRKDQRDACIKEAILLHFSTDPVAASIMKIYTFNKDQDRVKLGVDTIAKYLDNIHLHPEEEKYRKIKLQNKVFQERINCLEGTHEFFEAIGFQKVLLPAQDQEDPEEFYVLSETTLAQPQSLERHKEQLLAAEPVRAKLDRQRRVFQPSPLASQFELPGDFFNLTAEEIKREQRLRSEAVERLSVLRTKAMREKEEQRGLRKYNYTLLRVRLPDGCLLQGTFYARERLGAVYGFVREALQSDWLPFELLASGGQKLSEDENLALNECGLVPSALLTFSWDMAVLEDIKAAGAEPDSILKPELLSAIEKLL
# B2: GTP-binding protein GEM (Homo sapiens), P55040 (parent)
# chain: MTLNNVTMRQGTVGMQPQQQRWSIPADGRHLMVQKEPHQYSHRNRHSATPEDHCRRSWSSDSTDSVISSESGNTYYRVVLIGEQGVGKSTLANIFAGVHDSMDSDCEVLGEDTYERTLMVDGESATIILLDMWENKGENEWLHDHCMQVGDAYLIVYSITDRASFEKASELRIQLRRARQTEDIPIILVGNKSDLVRCREVSVSEGRACAVVFDCKFIETSAAVQHNVKELFEGIVRQVRLRRDSKEKNERRLAYQKRKESMPRKARRFWGKIVAKNNKNMAFKLKSKSCHDLSVL
# B3: Translocator protein (Homo sapiens), P30536 (parent)
# chain: MAPPWVPAMGFTLAPSLGCFVGSRFVHGEGLRWYAGLQKPSWHPPHWVLGPVWGTLYSAMGYGSYLVWKELGGFTEKAVVPLGLYTGQLALNWAWPPIFFGARQMGWALVDLLLVSGAAAATTVAWYQVSPLAARLLYPYLAWLAFTTTLNYCVWRDNHGWRGGRRLPE
# partner: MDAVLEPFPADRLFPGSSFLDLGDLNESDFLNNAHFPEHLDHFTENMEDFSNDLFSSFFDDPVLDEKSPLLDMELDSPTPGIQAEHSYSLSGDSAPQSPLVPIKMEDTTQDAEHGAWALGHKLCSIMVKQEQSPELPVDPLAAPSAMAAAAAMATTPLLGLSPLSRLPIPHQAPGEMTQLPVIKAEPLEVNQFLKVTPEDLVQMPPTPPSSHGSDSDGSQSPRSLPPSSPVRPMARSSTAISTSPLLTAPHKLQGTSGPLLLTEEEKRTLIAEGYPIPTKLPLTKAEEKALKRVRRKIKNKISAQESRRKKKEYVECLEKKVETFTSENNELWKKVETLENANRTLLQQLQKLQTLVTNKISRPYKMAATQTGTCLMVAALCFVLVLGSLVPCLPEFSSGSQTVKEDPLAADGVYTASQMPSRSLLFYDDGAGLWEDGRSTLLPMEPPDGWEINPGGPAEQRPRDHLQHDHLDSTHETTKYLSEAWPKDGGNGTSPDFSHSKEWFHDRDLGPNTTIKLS
# B4: Pre-B-cell leukemia transcription factor 4 (Homo sapiens), Q9BYU1 (parent)
# chain: MAAPPRPAPSPPAPRRLDTSDVLQQIMAITDQSLDEAQARKHALNCHRMKPALFSVLCEIKEKTVVSIRGIQDEDPPDAQLLRLDNMLLAEGVCRPEKRGRGGAVARAGTATPGGCPNDNSIEHSDYRAKLSQIRQIYHSELEKYEQACREFTTHVTNLLQEQSRMRPVSPKEIERMVGAIHGKFSAIQMQLKQSTCEAVMTLRSRLLDARRKRRNFSKQATEVLNEYFYSHLNNPYPSEEAKEELARKGGLTISQVSNWFGNKRIRYKKNMGKFQEEATIYTGKTAVDTTEVGVPGNHASCLSTPSSGSSGPFPLPSAGDAFLTLRTLASLQPPPGGGCLQSQAQGSWQGATPQPATASPAGDPGSINSSTSN
# B5: Zinc finger protein RFP (Homo sapiens), P14373 (parent)
# chain: MASGSVAECLQQETTCPVCLQYFAEPMMLDCGHNICCACLARCWGTAETNVSCPQCRETFPQRHMRPNRHLANVTQLVKQLRTERPSGPGGEMGVCEKHREPLKLYCEEDQMPICVVCDRSREHRGHSVLPLEEAVEGFKEQIQNQLDHLKRVKDLKKRRRAQGEQARAELLSLTQMEREKIVWEFEQLYHSLKEHEYRLLARLEELDLAIYNSINGAITQFSCNISHLSSLIAQLEEKQQQPTRELLQDIGDTLSRAERIRIPEPWITPPDLQEKIHIFAQKCLFLTESLKQFTEKMQSDMEKIQELREAQLYSVDVTLDPDTAYPSLILSDNLRQVRYSYLQQDLPDNPERFNLFPCVLGSPCFIAGRHYWEVEVGDKAKWTIGVCEDSVCRKGGVTSAPQNGFWAVSLWYGKEYWALTSPMTALPLRTPLQRVGIFLDYDAGEVSFYNVTERCHTFTFSHATFCGPVRPYFSLSYSGGKSAAPLIICPMSGIDGFSGHVGNHGHSMETSP
# partner: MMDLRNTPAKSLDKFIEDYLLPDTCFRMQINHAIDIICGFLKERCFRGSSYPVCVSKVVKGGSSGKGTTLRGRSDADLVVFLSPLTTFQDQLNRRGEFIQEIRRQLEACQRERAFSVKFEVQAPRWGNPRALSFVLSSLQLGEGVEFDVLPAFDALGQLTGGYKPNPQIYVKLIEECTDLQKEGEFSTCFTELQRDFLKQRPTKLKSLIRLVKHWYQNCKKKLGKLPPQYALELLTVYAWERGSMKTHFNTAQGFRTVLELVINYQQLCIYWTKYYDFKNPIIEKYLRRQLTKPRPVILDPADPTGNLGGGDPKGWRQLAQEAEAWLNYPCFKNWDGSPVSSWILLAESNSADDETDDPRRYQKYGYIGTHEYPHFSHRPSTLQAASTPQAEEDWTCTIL
# B6: Angiomotin (Homo sapiens), Q4VCS5 (parent)
# chain: MRNSEEQPSGGTTVLQRLLQEQLRYGNPSENRSLLAIHQQATGNGPPFPSGSGNPGPQSDVLSPQDHHQQLVAHAARQEPQGQEIQSENLIMEKQLSPRMQNNEELPTYEEAKVQSQYFRGQQHASVGAAFYVTGVTNQKMRTEGRPSVQRLNPGKMHQDEGLRDLKQGHVRSLSERLMQMSLATSGVKAHPPVTSAPLSPPQPNDLYKNPTSSSEFYKAQGPLPNQHSLKGMEHRGPPPEYPFKGMPPQSVVCKPQEPGHFYSEHRLNQPGRTEGQLMRYQHPPEYGAARPAQDISLPLSARNSQPHSPTSSLTSGGSLPLLQSPPSTRLSPARHPLVPNQGDHSAHLPRPQQHFLPNQAHQGDHYRLSQPGLSQQQQQQQQQHHHHHHHQQQQQQQPQQQPGEAYSAMPRAQPSSASYQPVPADPFAIVSRAQQMVEILSDENRNLRQELEGCYEKVARLQKVETEIQRVSEAYENLVKSSSKREALEKAMRNKLEGEIRRMHDFNRDLRERLETANKQLAEKEYEGSEDTRKTISQLFAKNKESQREKEKLEAELATARSTNEDQRRHIEIRDQALSNAQAKVVKLEEELKKKQVYVDKVEKMQQALVQLQAACEKREQLEHRLRTRLERELESLRIQQRQGNCQPTNVSEYNAAALMELLREKEERILALEADMTKWEQKYLEENVMRHFALDAAATVAAQRDTTVISHSPNTSYDTALEARIQKEEEEILMANKRCLDMEGRIKTLHAQIIEKDAMIKVLQQRSRKEPSKTEQLSCMRPAKSLMSISNAGSGLLSHSSTLTGSPIMEEKRDDKSWKGSLGILLGGDYRAEYVPSTPSPVPPSTPLLSAHSKTGSRDCSTQTERGTESNKTAAVAPISVPAPVAAAATAAAITATAATITTTMVAAAPVAVAAAAAPAAAAAPSPATAAATAAAVSPAAAGQIPAAASVASAAAVAPSAAAAAAVQVAPAAPAPVPAPALVPVPAPAAAQASAPAQTQAPTSAPAVAPTPAPTPTPAVAQAEVPASPATGPGPHRLSIPSLTCNPDKTDGPVFHSNTLERKTPIQILGQEPDAEMVEYLI
# partner: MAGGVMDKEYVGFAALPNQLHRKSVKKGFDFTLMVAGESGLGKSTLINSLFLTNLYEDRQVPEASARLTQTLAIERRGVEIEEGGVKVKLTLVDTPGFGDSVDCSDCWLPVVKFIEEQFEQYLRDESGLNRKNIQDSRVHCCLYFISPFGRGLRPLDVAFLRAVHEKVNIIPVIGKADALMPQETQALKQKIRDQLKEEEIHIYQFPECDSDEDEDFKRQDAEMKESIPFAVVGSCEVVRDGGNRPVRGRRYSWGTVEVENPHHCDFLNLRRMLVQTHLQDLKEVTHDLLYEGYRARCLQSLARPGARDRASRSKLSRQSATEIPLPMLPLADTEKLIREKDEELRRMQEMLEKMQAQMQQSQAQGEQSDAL
# Variants of: B1
# Conditions: with ubxn6_human UBXN6, Q9BZV1
row,Variant,effect of a mutation on the interaction
1,S41F,with no effect

# Variants of: B2
# Conditions: with ldoc1_human LDOC1, O95751
# ldoc1_human LDOC1, O95751, sequence (O95751 whole entry): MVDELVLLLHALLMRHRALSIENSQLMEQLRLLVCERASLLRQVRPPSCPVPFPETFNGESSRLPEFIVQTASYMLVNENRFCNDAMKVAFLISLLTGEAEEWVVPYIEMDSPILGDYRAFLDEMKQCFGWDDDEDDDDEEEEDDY
row,Variant,effect of a mutation on the interaction
1,R43G,with no effect

# Variants of: B2
# Conditions: with tri23_human TRIM23, P36406
# tri23_human TRIM23, P36406, sequence (P36406 whole entry): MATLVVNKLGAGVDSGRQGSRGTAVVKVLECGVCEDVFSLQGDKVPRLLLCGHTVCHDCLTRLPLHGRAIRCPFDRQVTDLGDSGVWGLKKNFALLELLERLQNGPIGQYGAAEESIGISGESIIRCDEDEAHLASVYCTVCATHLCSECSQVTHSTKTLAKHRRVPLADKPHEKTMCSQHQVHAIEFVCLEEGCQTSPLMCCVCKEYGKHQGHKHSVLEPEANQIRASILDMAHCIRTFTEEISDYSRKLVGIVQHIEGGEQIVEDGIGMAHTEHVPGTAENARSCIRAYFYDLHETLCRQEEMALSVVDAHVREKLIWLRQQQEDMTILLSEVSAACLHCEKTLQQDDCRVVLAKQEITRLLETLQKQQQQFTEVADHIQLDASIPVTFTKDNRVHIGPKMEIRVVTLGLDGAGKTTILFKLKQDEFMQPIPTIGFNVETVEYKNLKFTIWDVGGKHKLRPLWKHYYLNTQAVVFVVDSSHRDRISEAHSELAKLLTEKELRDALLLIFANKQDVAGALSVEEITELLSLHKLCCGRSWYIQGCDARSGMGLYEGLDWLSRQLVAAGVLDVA
row,Variant,effect of a mutation on the interaction
1,R43G,with no effect

# Variants of: B2
# Conditions: with nemo_human IKBKG
row,Variant,effect of a mutation on the interaction
1,R43G,with no effect

# Variants of: B2
# Conditions: with mtus2_human MTUS2, Q5JR59
# mtus2_human MTUS2, Q5JR59, sequence (Q5JR59 whole entry): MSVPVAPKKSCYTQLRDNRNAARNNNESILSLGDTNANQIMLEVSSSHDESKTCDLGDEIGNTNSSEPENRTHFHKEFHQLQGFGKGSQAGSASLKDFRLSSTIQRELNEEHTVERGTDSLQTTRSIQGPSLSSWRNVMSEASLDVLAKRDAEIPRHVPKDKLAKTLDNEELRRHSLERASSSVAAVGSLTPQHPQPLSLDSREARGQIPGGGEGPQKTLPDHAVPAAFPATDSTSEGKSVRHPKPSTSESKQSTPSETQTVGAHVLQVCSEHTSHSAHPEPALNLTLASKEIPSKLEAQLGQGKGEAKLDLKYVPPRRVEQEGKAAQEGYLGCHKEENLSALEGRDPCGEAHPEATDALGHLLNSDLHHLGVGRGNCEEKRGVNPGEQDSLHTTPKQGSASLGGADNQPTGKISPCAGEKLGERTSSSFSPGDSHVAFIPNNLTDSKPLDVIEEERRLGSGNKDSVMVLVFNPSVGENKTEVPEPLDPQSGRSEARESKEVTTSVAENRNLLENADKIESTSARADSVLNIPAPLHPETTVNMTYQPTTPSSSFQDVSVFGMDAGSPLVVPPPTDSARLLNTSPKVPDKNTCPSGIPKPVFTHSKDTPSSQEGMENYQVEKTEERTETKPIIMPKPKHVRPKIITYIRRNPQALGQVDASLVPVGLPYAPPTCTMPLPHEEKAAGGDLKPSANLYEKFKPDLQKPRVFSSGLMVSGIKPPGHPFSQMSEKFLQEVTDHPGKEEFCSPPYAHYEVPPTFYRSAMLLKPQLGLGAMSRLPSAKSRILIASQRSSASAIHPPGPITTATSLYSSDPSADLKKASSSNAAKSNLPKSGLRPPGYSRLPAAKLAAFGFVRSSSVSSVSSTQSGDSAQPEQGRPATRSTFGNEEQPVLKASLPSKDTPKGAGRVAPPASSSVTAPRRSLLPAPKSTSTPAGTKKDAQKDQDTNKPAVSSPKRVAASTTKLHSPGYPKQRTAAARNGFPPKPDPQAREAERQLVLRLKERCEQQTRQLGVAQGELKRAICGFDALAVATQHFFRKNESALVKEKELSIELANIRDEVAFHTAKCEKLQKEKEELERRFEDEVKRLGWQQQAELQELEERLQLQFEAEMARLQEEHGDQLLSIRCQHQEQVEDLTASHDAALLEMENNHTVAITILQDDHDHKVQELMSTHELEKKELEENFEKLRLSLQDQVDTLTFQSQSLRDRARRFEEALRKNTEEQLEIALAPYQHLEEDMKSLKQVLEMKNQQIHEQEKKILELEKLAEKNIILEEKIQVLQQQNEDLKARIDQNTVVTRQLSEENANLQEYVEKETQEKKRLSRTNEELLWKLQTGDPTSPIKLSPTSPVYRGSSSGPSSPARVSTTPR
row,Variant,effect of a mutation on the interaction
1,R43G,with no effect

# Variants of: B2
# Conditions: with pdli7_human PDLIM7, Q9NR12
# pdli7_human PDLIM7, Q9NR12, sequence (Q9NR12 whole entry): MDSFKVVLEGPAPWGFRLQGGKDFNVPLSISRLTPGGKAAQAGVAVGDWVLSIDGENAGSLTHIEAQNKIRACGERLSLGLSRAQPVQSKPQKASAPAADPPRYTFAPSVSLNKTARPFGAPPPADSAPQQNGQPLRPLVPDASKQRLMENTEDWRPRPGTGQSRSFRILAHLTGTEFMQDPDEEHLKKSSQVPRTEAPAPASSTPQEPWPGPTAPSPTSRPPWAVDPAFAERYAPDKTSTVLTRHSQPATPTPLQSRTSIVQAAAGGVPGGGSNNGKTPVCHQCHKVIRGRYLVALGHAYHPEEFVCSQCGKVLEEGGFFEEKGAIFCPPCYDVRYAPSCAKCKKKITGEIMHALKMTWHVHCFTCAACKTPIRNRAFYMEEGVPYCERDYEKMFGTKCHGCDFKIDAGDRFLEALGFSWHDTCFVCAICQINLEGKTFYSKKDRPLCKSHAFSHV
row,Variant,effect of a mutation on the interaction
1,R43G,with no effect

# Variants of: B3
# Conditions: with cr3l1_human CREB3L1, Q96BA8
row,Variant,effect of a mutation on the interaction
1,A119V,disrupting interaction strength

# Variants of: B4
# Conditions: with tfp11_human TFIP11, Q9UBB9
# tfp11_human TFIP11, Q9UBB9, sequence (Q9UBB9 whole entry): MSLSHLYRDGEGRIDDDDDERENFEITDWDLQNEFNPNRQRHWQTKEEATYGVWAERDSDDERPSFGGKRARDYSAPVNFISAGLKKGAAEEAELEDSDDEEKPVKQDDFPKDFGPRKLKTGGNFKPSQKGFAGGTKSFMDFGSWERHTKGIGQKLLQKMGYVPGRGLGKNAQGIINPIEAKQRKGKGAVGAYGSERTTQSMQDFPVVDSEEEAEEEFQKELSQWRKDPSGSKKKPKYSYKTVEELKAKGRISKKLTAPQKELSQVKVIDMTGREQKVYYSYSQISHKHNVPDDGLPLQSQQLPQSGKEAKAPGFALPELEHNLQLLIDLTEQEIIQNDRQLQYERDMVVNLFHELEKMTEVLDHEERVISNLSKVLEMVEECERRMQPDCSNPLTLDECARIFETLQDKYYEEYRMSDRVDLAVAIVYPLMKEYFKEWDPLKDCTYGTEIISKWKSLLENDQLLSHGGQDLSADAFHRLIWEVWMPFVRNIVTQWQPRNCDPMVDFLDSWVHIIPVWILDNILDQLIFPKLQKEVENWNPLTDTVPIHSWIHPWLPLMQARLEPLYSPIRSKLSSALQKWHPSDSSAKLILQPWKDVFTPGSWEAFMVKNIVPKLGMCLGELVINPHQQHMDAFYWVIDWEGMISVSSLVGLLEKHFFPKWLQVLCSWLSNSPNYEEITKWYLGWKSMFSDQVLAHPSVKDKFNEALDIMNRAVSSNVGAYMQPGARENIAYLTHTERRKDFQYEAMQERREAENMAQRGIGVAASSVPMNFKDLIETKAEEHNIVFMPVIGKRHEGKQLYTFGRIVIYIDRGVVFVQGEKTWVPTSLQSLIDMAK
row,Variant,effect of a mutation on the interaction
1,T154M,with no effect
2,R327Q,with no effect
3,T283M,with no effect

# Variants of: B5
# Conditions: with oas1_human OAS1, P00973
row,Variant,effect of a mutation on the interaction
1,N355S,disrupting interaction strength

# Variants of: B6
# Conditions: with sept1_human SEPTIN1, Q8WYJ6
row,Variant,effect of a mutation on the interaction
1,T899A,with no effect
